The text below walks through data of patent US20090022717A1 (CHEMOCENTRYX, published 2009).

T1: CXCR2 (UniProt P25025 1-360, limits assumed)
T1 construct: whole, on cells
T1 sequence (looked up): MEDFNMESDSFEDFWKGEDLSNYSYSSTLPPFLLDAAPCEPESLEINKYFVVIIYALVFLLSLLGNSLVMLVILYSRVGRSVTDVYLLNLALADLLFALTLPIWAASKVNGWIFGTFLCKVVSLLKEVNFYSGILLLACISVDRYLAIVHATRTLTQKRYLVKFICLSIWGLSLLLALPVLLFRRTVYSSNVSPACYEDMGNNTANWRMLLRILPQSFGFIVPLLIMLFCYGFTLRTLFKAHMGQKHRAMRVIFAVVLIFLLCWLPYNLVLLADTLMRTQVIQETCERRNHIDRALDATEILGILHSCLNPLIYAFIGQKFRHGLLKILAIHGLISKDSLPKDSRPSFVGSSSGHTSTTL

B1: monoclonal antibody 6E10 (antibody, V domains shown)
VH: EVKLDETGGGLVQPGRPMKLSCVASGFTFSDYWMNWVRQSPEKGLEWVGQIRNKPYNYETYYSDSVKGRFTISRDDSKSSVYLQMNNLRTEDTGIYYCTSLRYWGQGTLVTVSA
VL: DIVMTQSPSSLTVTAGEKVTMSCKSSHSLLNSGIQKNFLTWYQQKPGQPPKVLIYWAFTRESGVPERFTGSGSGTDFTLTISSVQAEDLAVYYCQSDYTYPFTFGSGTKLEIKR
notes: Mouse hybridoma monoclonal raised by gene gun immunisation with CXCR7 cDNA
B2: monoclonal antibody 11G8 (antibody, V domains shown)
VH: EVKLVESGGDLVQPGGSLKLSCATSGFTFSDYYMFWVRQTPEKRLEWVAYITNGGDRSYYSDTVTGRFIISRDNAKNTLYLQMSRLKSEDTAMYYCARQGNWAAWFVYWGQGTLVTVSA
VL: DVLMTQTPLSLPVSLGDQASISCRSSHYIVHSDGNTYLEWYLQKPGQSPKLLIYKVSNRFSGVPDRFSGSGSGTDFTLKISRVEAEDLGIYYCFQGSHVPLTFGAGTKLELKR
notes: as for B1

The target of the experiment “monoclonal antibody 6E10” is B1. Nature of the experiment: peptide competition of antibody staining of CXCR7-expressing cells, FACS. As for the experimental part:
(§1) We have established that both 11G8 and 6E10 antibodies recognize CXCR7 receptor expressed on the surface of cells by FACS. This is represented as an increase in florescent signal (filled) over background (open line) along the X axis of FACS plot (FIG. 2). To interrogate which amino acid residues 11G8 and 6E10 recognize and bind to, a number of short peptides (0.5-5 μg) derived from the CXCR7 sequence were pre-incubated with either antibody (0.5-5 μg) in 100 μl PBS. This mixture was then incubated with 500,000 cells expressing CXCR7 for 15 minutes at room temperature. If the antibody recognized the sequence encoded by the peptide, then the peptide would effectively compete antibody away from binding to the cell associated receptor resulting in a subsequent reduction in florescence on a FACS plot. […] These readouts are exemplified in FIG. 2 with “no peptide” representing […] antibody staining, “peptide 2.2.1” representing peptide competition, and “peptide 2.3.4” representing no peptide competition. Through slight alternations of the peptide sequence in this assay, the minimal peptide sequence necessary for antibody recognition was discerned. FIG. 3 illustrates a summary of peptides that competed with either antibody 11G8 or 6E10.

Experiment [1] concerns the target B2. Described as above. Here is the method:
as §1

A further experiment addresses T2, mouse CXCR7 (mouse, UniProt P56485 1-362).
T2 construct: whole, on cells; Endogenous on the mouse mammary tumor line 4T1 and on Lewis lung carcinoma cells; also E13 fetal mouse sections; also called mouse homolog of CXCR7
Nature of the experiment: detection on mouse 4T1 mammary tumor cells and Lewis lung carcinoma cells.

Another experiment addresses T1, CXCR2. Nature of the experiment: flow cytometry on transfected HEK 293 cells.
In the next experiment the target is T3, human CXCR7 (human, UniProt P25106 1-362).
T3 construct: also called RDC1; CCX-CKR2
T3 sequence (P25106 whole entry): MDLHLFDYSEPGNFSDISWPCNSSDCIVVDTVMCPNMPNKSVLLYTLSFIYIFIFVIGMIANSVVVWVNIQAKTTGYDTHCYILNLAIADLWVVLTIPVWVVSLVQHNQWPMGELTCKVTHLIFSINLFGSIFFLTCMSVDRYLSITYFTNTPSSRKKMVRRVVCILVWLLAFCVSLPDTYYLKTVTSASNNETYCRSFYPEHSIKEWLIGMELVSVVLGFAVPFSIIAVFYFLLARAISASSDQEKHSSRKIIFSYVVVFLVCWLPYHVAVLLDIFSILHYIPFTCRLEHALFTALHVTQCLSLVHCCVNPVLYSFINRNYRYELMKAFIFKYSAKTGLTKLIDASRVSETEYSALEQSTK
In words: flow cytometry on CXCR7 transfectants (HEK 293) and on HeLa and MCF-7 cells. (Flow cytometry measures light scatter and fluorescence of single cells or particles in a stream.)

Experiment [2] concerns the target B2. Nature of the experiment: peptide pre-incubated with antibody, then FACS staining of CXCR7-expressing cells (FIG. 2, 11G8 on 435-CXCR7 cells). As for the experimental part:
as §1

T2 sequence (P56485 whole entry): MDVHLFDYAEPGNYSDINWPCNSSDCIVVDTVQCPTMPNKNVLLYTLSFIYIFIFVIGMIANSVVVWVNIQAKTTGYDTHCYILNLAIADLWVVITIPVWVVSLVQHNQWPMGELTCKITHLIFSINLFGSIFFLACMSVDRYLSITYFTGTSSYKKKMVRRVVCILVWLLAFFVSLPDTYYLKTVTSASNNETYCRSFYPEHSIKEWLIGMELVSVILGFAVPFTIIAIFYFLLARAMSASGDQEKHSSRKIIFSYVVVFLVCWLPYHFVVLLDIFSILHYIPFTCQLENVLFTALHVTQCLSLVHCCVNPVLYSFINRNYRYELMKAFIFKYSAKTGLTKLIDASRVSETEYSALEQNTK

Regarding FSDISWPCNSSDCIVVD (also called Peptide 2) [SEQ ID NO 2], the binding result with monoclonal antibody 6E10 and in the experiment with monoclonal antibody 11G8 [1] was “binds” each time. On to WPCNSSDCIVV (also called Peptide 2.2.5) [SEQ ID NO 16], for which, in the experiment with monoclonal antibody 6E10, the binding result is given as “binds”. As to B1, the binding result in the experiment with mouse CXCR7 is recorded as “binds”; with CXCR2 it was “no binding”; with human CXCR7 it was “binds”.

On to SWPCNSSDCIVV (also called Peptide 2.1.2) [SEQ ID NO 9], for which, in the experiment with monoclonal antibody 6E10, the binding result is given as “binds”.

Consider NWPCNSSDCIVV (also called Peptide 2.2.6) [SEQ ID NO 17], for which the binding result with monoclonal antibody 6E10 is “binds”. For FSDISWPC (also called Peptide 2.2.1) [SEQ ID NO 12], the binding result with monoclonal antibody 11G8 [1] is listed as “binds”. With YSDINWPC (also called Peptide 2.2.3) [SEQ ID NO 14], the binding result with monoclonal antibody 11G8 [1] is listed as “binds”. In the case of DISWPCNSSDCI (also called Peptide 2.1.1) [SEQ ID NO 8], in the experiment with monoclonal antibody 6E10, the binding result is reported as “binds”. In the case of PCNSSDCIV [peptide 2.3.4], the binding result with monoclonal antibody 11G8 [2] is on record as “no binding”.

As to NFSDISWP (also called Peptide 2.3.1) [SEQ ID NO 18], in the experiment with monoclonal antibody 11G8 [1], the binding result was “binds”. Consider B2, for which the binding result is on record as “binds” in the experiment with mouse CXCR7, “no binding” in the experiment with CXCR2 and “binds” with human CXCR7. For the molecule DYSEPGNFSDISWPC (also called Peptide 9C4) [SEQ ID NO 11], the binding result with monoclonal antibody 11G8 [1] is on record as “binds”.
